Assay results published in paper PMC9574550, “Protein engineering approach to enhance activity assays of mono-ADP-ribosyltransferases through proximity” (Protein Engineering, Design and Selection, 2022).

Tests used:
[1] = target: C8 scaffold (eight tandem repeats of H. thermocellum CipA cohesin 1) (Hungateiclostridium thermocellum) (UniProt Q06851); assay: SEC-MALS; 35 μM enzyme mixed with C8 scaffold in SEC buffer with 2 mM CaCl2, S200 Increase 10/300; apparent excess of PARP10-Dock (limited C8 scaffold)
[2] = target: C8 scaffold (eight tandem repeats of H. thermocellum CipA cohesin 1) (Hungateiclostridium thermocellum) (UniProt Q06851); assay: SEC-MALS; 35 μM enzyme mixed with C8 scaffold in SEC buffer with 2 mM CaCl2, S200 Increase 10/300; ratio that resulted in no visible unbound PARP10-Dock (saturating conditions)
[3] = target: T1, PARP16 (Homo sapiens, UniProt Q8N5Y8); assay: homogeneous NAD+ conversion assay, dose-response; format: biochemical
T1 construct: catalytic fragment, MBP-PARP16-Dockerin (PARP16-Dock) on C8 scaffold
T1 sequence (Q8N5Y8 94-279 limits assumed): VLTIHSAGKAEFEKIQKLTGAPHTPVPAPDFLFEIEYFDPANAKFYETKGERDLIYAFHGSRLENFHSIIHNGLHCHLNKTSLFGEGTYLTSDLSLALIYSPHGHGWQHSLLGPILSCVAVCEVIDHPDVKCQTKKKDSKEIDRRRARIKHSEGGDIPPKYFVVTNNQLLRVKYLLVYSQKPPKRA

stoichiometry N (PARP10-Dock per C8 scaffold) [1] | stoichiometry N (PARP10-Dock per C8 scaffold) [2] | IC50 [3] | Compound
< 8 | 7 |  | PARP10-Dock (MBP-PARP10 catalytic fragment-Cel48S dockerin) (from UniProt A3DH67 673-739) (enzyme)
 |  | 38 µM | CN(C)CC(=O)Nc1ccc2[nH]c(=O)c3ccccc3c2c1 [PJ34]
